Reference: article PMC6515374, “Virus-Like Particle Facilitated Deposition of Hydroxyapatite Bone Mineral on Nanocellulose after Exposure to Phosphate and Calcium Precursors” (International Journal of Molecular Sciences, 2019)

Target: the molecule itself
Assay: transmission electron microscopy; purified VLPs on carbon coated copper grids, stained with 2% uranyl acetate, 80 kV; also confirmed by atomic force microscopy (Figure S1)

B1: Tobacco mosaic virus coat protein subunit with the E50Q and D77N mutations (assembles into TMV virus-like particles) (natural protein, UniProt P69687 1-159, looked up)
chain: MSYSITTPSQFVFLSSAWADPIELINLCTNALGNQFQTQQARTVVQRQFSQVWKPSPQVTVRFPDSDFKVYRYNAVLNPLVTALLGAFDTRNRIIEVENQANPTTAETLDATRRVDDATVAIRSAINNLIVELIRGTGSYNRSSFESSSGLVWTSGPAT
notes: Tobacco mosaic virus coat protein, codon optimized for bacterial expression, in pET-21a(+) at NdeI/XhoI with a stop codon to prevent fusion to the His tag; No tag: a stop codon stands before the vector's His tag; Assembles without viral RNA into rods of 18 nm diameter and variable length; also called TMV VLPs; TMV CP; source: E. coli BL21(DES)pLysS, purified (chloroform, PEG 8000/NaCl …)
binding result: binds
